Experiments:
Test in all cases: enzyme inhibition kinetics (fluorogenic peptide substrate activity assay); inhibitor preincubated with protease 15 min, 37 °C; IC50 from residual velocities, Ki by the Cheng-Prusoff equation; 50 mM sodium acetate pH 5.5, 0.1% polyethylene glycol 1500, 2.5 mM dithiothreitol (cathepsins L, K, V, B, F, C and papain; 50 mM NaCl for cathepsin C)
Conditions in all cases: both partners purified
[1] = molecular target: T1, Carica papaya papain (Carica papaya, UniProt P00784 134-345)
T1 construct: source: bought: Merck
T1 sequence (looked up): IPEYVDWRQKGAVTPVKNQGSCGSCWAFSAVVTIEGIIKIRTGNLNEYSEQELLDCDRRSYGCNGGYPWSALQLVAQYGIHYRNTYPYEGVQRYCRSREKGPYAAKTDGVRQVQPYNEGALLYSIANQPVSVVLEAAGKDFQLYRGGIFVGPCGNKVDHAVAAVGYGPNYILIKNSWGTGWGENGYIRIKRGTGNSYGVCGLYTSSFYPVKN

[2] = molecular target: T2, human cathepsin L (human)
T2 construct: source: Pichia pastoris expression system, as described previously [12,56,57]

[3] = molecular target: T3, human cathepsin F (human, UniProt Q9UBX1 271-484)
T3 construct: source: bought: Enzo Life Sciences
T3 sequence (looked up): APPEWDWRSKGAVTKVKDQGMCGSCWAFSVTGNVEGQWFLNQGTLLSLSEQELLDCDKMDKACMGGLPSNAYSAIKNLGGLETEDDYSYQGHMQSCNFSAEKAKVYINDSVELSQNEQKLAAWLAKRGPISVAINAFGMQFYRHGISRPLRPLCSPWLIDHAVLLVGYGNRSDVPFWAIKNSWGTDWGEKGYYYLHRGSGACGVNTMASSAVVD

[4] = molecular target: T4, human cathepsin K (human, UniProt P43235 115-329)
T4 construct: source: Pichia pastoris expression system, as described previously [12,56,57]
T4 sequence (looked up): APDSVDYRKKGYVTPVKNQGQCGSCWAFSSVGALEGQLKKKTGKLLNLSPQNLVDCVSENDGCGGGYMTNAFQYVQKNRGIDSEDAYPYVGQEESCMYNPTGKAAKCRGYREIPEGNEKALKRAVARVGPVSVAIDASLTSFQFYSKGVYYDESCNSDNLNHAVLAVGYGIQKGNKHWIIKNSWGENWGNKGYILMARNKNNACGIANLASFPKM

[5] = molecular target: T5, human cathepsin V (human, UniProt O60911 114-334)
T5 construct: source: Pichia pastoris expression system, as described previously [12,56,57]
T5 sequence (O60911 114-334): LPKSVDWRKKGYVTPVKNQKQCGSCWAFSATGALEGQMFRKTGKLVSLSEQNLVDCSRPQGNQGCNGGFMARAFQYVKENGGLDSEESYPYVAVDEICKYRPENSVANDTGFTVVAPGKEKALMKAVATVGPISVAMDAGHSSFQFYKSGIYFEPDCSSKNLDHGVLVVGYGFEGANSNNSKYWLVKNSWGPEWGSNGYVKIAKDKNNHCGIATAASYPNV

B1: IrThy-Nd, recombinant N-terminal Tg1 domain of IrThy (domain or fragment)
chain: SNAASVPTRVANHGASRPLSDCEQRKQREERNTGPLAIHIECNPDGSYKPMQCFGNPDQPRRMCACYDQEYDQIKAPSRQLKSCK
[1]
  Ki: 153 nM
[2]
  Ki: 179 nM
[3]
  Ki: 207 nM
[4]
  Ki: 43.7 nM
[5]
  Ki: 27.2 nM

— paper PMC10889554, “An Unusual Two-Domain Thyropin from Tick Saliva: NMR Solution Structure and Highly Selective Inhibition of Cysteine Cathepsins Modulated by Glycosaminoglycans” (International Journal of Molecular Sciences, 2024)
